Assay results from publication PMC9482650, “Quantitative fragmentomics allow affinity mapping of interactomes” (Nature Communications, 2022).

T1: DLG3_1, Q92796
T1 sequence (Q92796 125-227, limits assumed, looked up): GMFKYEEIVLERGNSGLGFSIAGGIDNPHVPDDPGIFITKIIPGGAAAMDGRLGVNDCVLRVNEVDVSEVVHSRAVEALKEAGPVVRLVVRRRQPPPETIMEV

T2: DVL3, Q92997
T2 sequence (Q92997 244-331, limits assumed, looked up): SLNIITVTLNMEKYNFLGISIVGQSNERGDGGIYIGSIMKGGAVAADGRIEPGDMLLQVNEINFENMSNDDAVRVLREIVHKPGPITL

T3: APBA2_1, Q99767
T3 sequence (Q99767 563-664, limits assumed, looked up): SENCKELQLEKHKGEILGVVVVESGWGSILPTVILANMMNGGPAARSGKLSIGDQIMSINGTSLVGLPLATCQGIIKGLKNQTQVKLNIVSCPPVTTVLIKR

T4: SYNJ2BP, P57105
T4 sequence (P57105 8-110, limits assumed, looked up): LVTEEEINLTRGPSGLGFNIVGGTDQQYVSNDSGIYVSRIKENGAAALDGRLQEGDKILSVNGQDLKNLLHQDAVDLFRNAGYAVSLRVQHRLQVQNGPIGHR

T5: SNTB1, Q13884
T5 sequence (Q13884 107-205, limits assumed, looked up): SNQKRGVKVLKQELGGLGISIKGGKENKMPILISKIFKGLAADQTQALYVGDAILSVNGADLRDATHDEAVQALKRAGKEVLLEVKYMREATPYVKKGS

T6: FRMPD1, Q5SYB0
T6 sequence (Q5SYB0 52-145, limits assumed, looked up): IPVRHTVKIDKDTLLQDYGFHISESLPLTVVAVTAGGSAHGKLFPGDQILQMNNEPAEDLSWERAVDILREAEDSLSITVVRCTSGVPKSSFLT

T7: PDZD7_3, Q9H5P4
T7 sequence (Q9H5P4 857-944, limits assumed, looked up): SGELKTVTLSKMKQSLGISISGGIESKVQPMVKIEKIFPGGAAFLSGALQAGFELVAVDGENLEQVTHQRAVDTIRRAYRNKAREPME

T8: GRIP1_5, Q9Y3R0
T8 sequence (Q9Y3R0 568-668, limits assumed, looked up): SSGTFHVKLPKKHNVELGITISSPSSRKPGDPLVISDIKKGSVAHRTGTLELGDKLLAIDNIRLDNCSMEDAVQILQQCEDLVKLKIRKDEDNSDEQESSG

T9: DLG3_2, Q92796
T9 sequence (Q92796 221-321, limits assumed, looked up): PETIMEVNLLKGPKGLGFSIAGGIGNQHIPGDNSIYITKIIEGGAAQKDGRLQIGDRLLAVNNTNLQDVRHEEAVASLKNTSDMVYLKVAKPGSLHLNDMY

T10: APBA3_1, O96018
T10 sequence (O96018 389-490, limits assumed, looked up): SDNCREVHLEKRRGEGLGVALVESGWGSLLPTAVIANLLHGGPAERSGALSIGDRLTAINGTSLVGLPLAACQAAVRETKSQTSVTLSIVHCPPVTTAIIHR

T11: SHANK1, Q9Y566
T11 sequence (Q9Y566 658-767, limits assumed, looked up): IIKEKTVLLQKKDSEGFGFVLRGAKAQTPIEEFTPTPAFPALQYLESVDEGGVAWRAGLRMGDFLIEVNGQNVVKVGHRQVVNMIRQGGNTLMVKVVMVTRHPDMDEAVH

T12: ARHGAP21, Q5T5U3
T12 sequence (Q5T5U3 45-169, limits assumed, looked up): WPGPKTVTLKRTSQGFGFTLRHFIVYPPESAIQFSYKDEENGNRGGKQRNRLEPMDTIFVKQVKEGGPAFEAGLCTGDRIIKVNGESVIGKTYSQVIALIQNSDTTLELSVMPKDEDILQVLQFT

T13: TJP3_3, O95049
T13 sequence (O95049 375-456, limits assumed, looked up): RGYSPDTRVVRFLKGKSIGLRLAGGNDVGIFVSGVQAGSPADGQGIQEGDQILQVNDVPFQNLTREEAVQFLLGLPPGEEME

B1: CD46, P15529 (peptide)
chain: THREVKFTSL
B2: NRXN3, Q9HDB5 (peptide)
chain: QKNKDREYYV
B3: RCN2, Q14257 (peptide)
chain: HDDYFYHDEL

What follows are binders tested against T1, DLG3_1, Q92796 (assay: holdup assay). Details: plain residues with an end cap or a label only (N-terminal biotin on a linker: ado-ado).
Design: key: below the threshold = too weak to quantify, mostly under pKd 3.1 to 4

| pKd | Binder |
| --- | --- |
| below the threshold | B1 |
| below the threshold | B2 |
| below the threshold | B3 |

What follows are binders tested against HTRA1, Q92743 (assay: holdup assay). Details: plain residues with an end cap or a label only (N-terminal biotin on a linker: ado-ado).
HTRA1, Q92743, sequence (Q92743 360-477): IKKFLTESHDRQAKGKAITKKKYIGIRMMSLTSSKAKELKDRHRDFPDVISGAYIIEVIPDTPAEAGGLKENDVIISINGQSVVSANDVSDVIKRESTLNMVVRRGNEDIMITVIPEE
Design: key: below the threshold = too weak to quantify, mostly under pKd 3.1 to 4

| pKd | Binder |
| --- | --- |
| 3.89 | B1 |
| 5.49 | B2 |
| 3.98 | B3 |

What follows are binders tested against MAST1, Q9Y2H9 (assay: holdup assay). Details: plain residues with an end cap or a label only (N-terminal biotin on a linker: ado-ado).
MAST1, Q9Y2H9, sequence (Q9Y2H9 962-1065): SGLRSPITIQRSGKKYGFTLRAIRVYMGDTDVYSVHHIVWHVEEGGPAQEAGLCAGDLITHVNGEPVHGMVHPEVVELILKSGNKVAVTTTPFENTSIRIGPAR
Design: key: below the threshold = too weak to quantify, mostly under pKd 3.1 to 4

| pKd | Binder |
| --- | --- |
| 4.81 | B1 |
| below the threshold | B2 |
| 4.35 | B3 |

These binders were tested against T2, DVL3, Q92997 (assay: holdup assay). Details: plain residues with an end cap or a label only (N-terminal biotin on a linker: ado-ado).
Design: key: below the threshold = too weak to quantify, mostly under pKd 3.1 to 4

| pKd | Binder |
| --- | --- |
| below the threshold | B1 |
| 4.02 | B2 |
| below the threshold | B3 |

Each binder was assayed against PDLIM1, O00151 (assay: holdup assay). Details: plain residues with an end cap or a label only (N-terminal biotin on a linker: ado-ado).
PDLIM1, O00151, sequence (O00151 1-87): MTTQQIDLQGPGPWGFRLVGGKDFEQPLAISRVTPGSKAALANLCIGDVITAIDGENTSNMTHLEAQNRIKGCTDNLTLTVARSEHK
Design: key: below the threshold = too weak to quantify, mostly under pKd 3.1 to 4

| pKd | Binder |
| --- | --- |
| below the threshold | B1 |
| below the threshold | B2 |
| 3.83 | B3 |

The binders below were run against T3, APBA2_1, Q99767 (assay: holdup assay). Details: plain residues with an end cap or a label only (N-terminal biotin on a linker: ado-ado).
Design: key: below the threshold = too weak to quantify, mostly under pKd 3.1 to 4

| pKd | Binder |
| --- | --- |
| below the threshold | B1 |
| below the threshold | B2 |
| below the threshold | B3 |

What follows are binders tested against DLG1_2, Q12959 (assay: holdup assay). Details: plain residues with an end cap or a label only (N-terminal biotin on a linker: ado-ado).
DLG1_2, Q12959, sequence (Q12959 314-412): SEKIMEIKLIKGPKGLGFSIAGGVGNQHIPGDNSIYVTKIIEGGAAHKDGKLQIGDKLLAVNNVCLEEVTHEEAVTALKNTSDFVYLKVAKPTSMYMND
Design: key: below the threshold = too weak to quantify, mostly under pKd 3.1 to 4

| pKd | Binder |
| --- | --- |
| 3.88 | B1 |
| below the threshold | B2 |
| below the threshold | B3 |

The binders below were run against T4, SYNJ2BP, P57105 (assay: holdup assay). Details: plain residues with an end cap or a label only (N-terminal biotin on a linker: ado-ado).
Design: key: below the threshold = too weak to quantify, mostly under pKd 3.1 to 4

| pKd | Binder |
| --- | --- |
| 4.59 | B1 |
| below the threshold | B2 |
| below the threshold | B3 |

The binders below were run against MAGI2_6, Q86UL8 (assay: holdup assay). Details: plain residues with an end cap or a label only (N-terminal biotin on a linker: ado-ado).
MAGI2_6, Q86UL8, sequence (Q86UL8 1141-1229): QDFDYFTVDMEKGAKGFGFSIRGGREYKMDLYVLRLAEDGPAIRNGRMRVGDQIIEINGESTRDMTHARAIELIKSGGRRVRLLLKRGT
Design: key: below the threshold = too weak to quantify, mostly under pKd 3.1 to 4

| pKd | Binder |
| --- | --- |
| 4.59 | B1 |
| below the threshold | B2 |
| 3.9 | B3 |

What follows are binders tested against T5, SNTB1, Q13884 (assay: holdup assay). Details: plain residues with an end cap or a label only (N-terminal biotin on a linker: ado-ado).
Design: key: below the threshold = too weak to quantify, mostly under pKd 3.1 to 4

| pKd | Binder |
| --- | --- |
| 4.86 | B1 |
| 3.65 | B2 |
| below the threshold | B3 |

The binders below were run against T6, FRMPD1, Q5SYB0 (assay: holdup assay). Details: plain residues with an end cap or a label only (N-terminal biotin on a linker: ado-ado).
Design: key: below the threshold = too weak to quantify, mostly under pKd 3.1 to 4

| pKd | Binder |
| --- | --- |
| below the threshold | B1 |
| below the threshold | B2 |
| below the threshold | B3 |

Each binder was assayed against Inadl_6, Q8NI35 (assay: holdup assay). Details: plain residues with an end cap or a label only (N-terminal biotin on a linker: ado-ado).
Inadl_6, Q8NI35, sequence (Q8NI35 1058-1167): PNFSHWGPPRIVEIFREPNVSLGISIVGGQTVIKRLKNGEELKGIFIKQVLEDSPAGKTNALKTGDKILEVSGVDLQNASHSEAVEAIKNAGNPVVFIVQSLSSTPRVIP
Design: key: below the threshold = too weak to quantify, mostly under pKd 3.1 to 4

| pKd | Binder |
| --- | --- |
| 3.7 | B1 |
| below the threshold | B2 |
| below the threshold | B3 |

These binders were tested against T7, PDZD7_3, Q9H5P4 (assay: holdup assay). Details: plain residues with an end cap or a label only (N-terminal biotin on a linker: ado-ado).
Design: key: below the threshold = too weak to quantify, mostly under pKd 3.1 to 4

| pKd | Binder |
| --- | --- |
| 4.75 | B1 |
| below the threshold | B2 |
| below the threshold | B3 |

The binders below were run against T8, GRIP1_5, Q9Y3R0 (assay: holdup assay). Details: plain residues with an end cap or a label only (N-terminal biotin on a linker: ado-ado).
Design: key: below the threshold = too weak to quantify, mostly under pKd 3.1 to 4

| pKd | Binder |
| --- | --- |
| below the threshold | B1 |
| below the threshold | B2 |
| below the threshold | B3 |

The binders below were run against T9, DLG3_2, Q92796 (assay: holdup assay). Details: plain residues with an end cap or a label only (N-terminal biotin on a linker: ado-ado).
Design: key: below the threshold = too weak to quantify, mostly under pKd 3.1 to 4

| pKd | Binder |
| --- | --- |
| 4.23 | B1 |
| 3.65 | B2 |
| below the threshold | B3 |

Each binder was assayed against Inadl_4, Q8NI35 (assay: holdup assay). Details: plain residues with an end cap or a label only (N-terminal biotin on a linker: ado-ado).
Inadl_4, Q8NI35, sequence (Q8NI35 547-651): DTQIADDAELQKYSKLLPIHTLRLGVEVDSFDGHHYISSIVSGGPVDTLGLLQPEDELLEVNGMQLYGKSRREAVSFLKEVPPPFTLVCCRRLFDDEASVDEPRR
Design: key: below the threshold = too weak to quantify, mostly under pKd 3.1 to 4

| pKd | Binder |
| --- | --- |
| below the threshold | B1 |
| below the threshold | B2 |
| below the threshold | B3 |

The binders below were run against GRIP2_4, Q9C0E4 (assay: holdup assay). Details: plain residues with an end cap or a label only (N-terminal biotin on a linker: ado-ado).
GRIP2_4, Q9C0E4, sequence (Q9C0E4 446-548): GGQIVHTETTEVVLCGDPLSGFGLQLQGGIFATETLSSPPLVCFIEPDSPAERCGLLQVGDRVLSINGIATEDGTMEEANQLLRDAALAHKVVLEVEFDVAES
Design: key: below the threshold = too weak to quantify, mostly under pKd 3.1 to 4

| pKd | Binder |
| --- | --- |
| below the threshold | B1 |
| below the threshold | B2 |
| below the threshold | B3 |

Each binder was assayed against T10, APBA3_1, O96018 (assay: holdup assay). Details: plain residues with an end cap or a label only (N-terminal biotin on a linker: ado-ado).
Design: key: below the threshold = too weak to quantify, mostly under pKd 3.1 to 4

| pKd | Binder |
| --- | --- |
| below the threshold | B1 |
| below the threshold | B2 |
| below the threshold | B3 |

These binders were tested against GRID2IP_2, A4D2P6 (assay: holdup assay). Details: plain residues with an end cap or a label only (N-terminal biotin on a linker: ado-ado).
GRID2IP_2, A4D2P6, sequence (A4D2P6 272-370): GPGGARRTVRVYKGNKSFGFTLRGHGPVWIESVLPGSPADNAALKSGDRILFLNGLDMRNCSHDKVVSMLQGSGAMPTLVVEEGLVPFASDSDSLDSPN
Design: key: below the threshold = too weak to quantify, mostly under pKd 3.1 to 4

| pKd | Binder |
| --- | --- |
| 4.95 | B1 |
| 3.52 | B2 |
| below the threshold | B3 |

These binders were tested against T11, SHANK1, Q9Y566 (assay: holdup assay). Details: plain residues with an end cap or a label only (N-terminal biotin on a linker: ado-ado).
Design: key: below the threshold = too weak to quantify, mostly under pKd 3.1 to 4

| pKd | Binder |
| --- | --- |
| 4.39 | B1 |
| below the threshold | B2 |
| below the threshold | B3 |

Each binder was assayed against T12, ARHGAP21, Q5T5U3 (assay: holdup assay). Details: plain residues with an end cap or a label only (N-terminal biotin on a linker: ado-ado).
Design: key: below the threshold = too weak to quantify, mostly under pKd 3.1 to 4

| pKd | Binder |
| --- | --- |
| below the threshold | B1 |
| 4.2 | B2 |
| 4.17 | B3 |

What follows are binders tested against T13, TJP3_3, O95049 (assay: holdup assay). Details: plain residues with an end cap or a label only (N-terminal biotin on a linker: ado-ado).
Design: key: below the threshold = too weak to quantify, mostly under pKd 3.1 to 4

| pKd | Binder |
| --- | --- |
| below the threshold | B1 |
| 3.98 | B2 |
| below the threshold | B3 |

These binders were tested against SCRIB_2, Q14160 (assay: holdup assay). Details: plain residues with an end cap or a label only (N-terminal biotin on a linker: ado-ado).
SCRIB_2, Q14160, sequence (Q14160 857-960): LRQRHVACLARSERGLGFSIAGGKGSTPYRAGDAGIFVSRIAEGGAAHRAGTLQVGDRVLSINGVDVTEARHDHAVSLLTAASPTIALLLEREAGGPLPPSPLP
Design: key: below the threshold = too weak to quantify, mostly under pKd 3.1 to 4

| pKd | Binder |
| --- | --- |
| 3.67 | B1 |
| below the threshold | B2 |
| below the threshold | B3 |

The binders below were run against MAGI2_5, Q86UL8 (assay: holdup assay). Details: plain residues with an end cap or a label only (N-terminal biotin on a linker: ado-ado).
MAGI2_5, Q86UL8, sequence (Q86UL8 915-1017): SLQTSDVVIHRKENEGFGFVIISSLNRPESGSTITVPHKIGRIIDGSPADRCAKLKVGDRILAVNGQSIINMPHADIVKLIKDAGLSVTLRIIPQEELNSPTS
Design: key: below the threshold = too weak to quantify, mostly under pKd 3.1 to 4

| pKd | Binder |
| --- | --- |
| 3.84 | B1 |
| below the threshold | B2 |
| below the threshold | B3 |
